# Assay results: US20120114667A1
# B1: 5B11 (antibody, IgG2, V domains shown)
# VH: QVQLVESGGGVVQPGRSVRLSCAASGFTFSSYGMHWVRQTPGKGLEWVAIIWYDGGIEYYADSVKGRFTISRDNSKNTLYLQMNSLRAEDTAVYYCARDHRYGSSWFDYWGQGTLVTVSS
# VL: DIQMTQSPSSLSASVGDRVTITCRASQGINNYLAWFQQKPGKAPKSLIYAASSLQSGVPSNFSGSGSGTDFTLSISSLQPEDFATYYCQQYKSYPLTFGGGTKVEIR
# B2: 3C5 (antibody, IgG2, V domains shown)
# VH: RVQLQESGPGLVKPSQTLSLTCTVSGGSIISGGYFWTWIRQHPGKGLEWIGYIYYSGSTYYSPSLKSRVTISVDTSKNQFSLKLSSVTAADTAVYYCTRAVPAAKGYYSYYGMDVWGQGTTVTVSS
# VL: DIVMTQSPLSLPVTPGEPASISCRSSQSLLHSSGYNYLDWFLQKPGQSPQLLIYLSSNRASGVPDRFSGSGSGTDFTLKISRVEAEDVGVYYCMQALQTPFTFGPGTKVDIK
# Biological target: avb3 and avb5 integrins on A375M cells
# Assay: cell-based or functional assay
Binder,"Osteopontin Adhesion (% inhibition) at 5 ug/ml, A375M cells","Vitronectin Adhesion (% inhibition) at 5 ug/ml, A375M cells"
B1,13%,9%
B2,3%,10%
